{"source": "IntAct's records for PubMed 36931259", "parents": {"B1": {"name": "14-3-3 protein sigma (Homo sapiens), P31947 (parent)", "chain": "MERASLIQKAKLAEQAERYEDMAAFMKGAVEKGEELSCEERNLLSVAYKNVVGGQRAAWRVLSSIEQKSNEEGSEEKGPEVREYREKVETELQGVCDTVLGLLDSHLIKEAGDAESRVFYLKMKGDYYRYLAEVATGDDKKRIIDSARSAYQEAMDISKKEMPPTNPIRLGLALNFSVFHYEIANSPEEAISLAKTTFDEAMADLHTLSEDSYKDSTLIMQLLRDNLTLWTADNAGEEGGEAPQEPQS"}}}
{"variants_of": "B1", "conditions": "with MAP3K14, Q99558"}
{"variant": "K49E;R56E;V178D", "effect of a mutation on the interaction": "decreasing interaction strength"}
{"variants_of": "B1", "conditions": "with limk2_human LIMK2, P53671"}
{"variant": "K49E;R56E;V178D", "effect of a mutation on the interaction": "decreasing interaction strength"}
{"variants_of": "B1", "conditions": "with m3k9_human MAP3K9, P80192"}
{"variant": "K49E;R56E;V178D", "effect of a mutation on the interaction": "decreasing interaction strength"}
{"variants_of": "B1", "conditions": "with tesk2_human TESK2, Q96S53"}
{"variant": "K49E;R56E;V178D", "effect of a mutation on the interaction": "decreasing interaction strength"}
{"variants_of": "B1", "conditions": "with mk04_human MAPK4, P31152"}
{"variant": "K49E;R56E;V178D", "effect of a mutation on the interaction": "decreasing interaction strength"}
{"variants_of": "B1", "conditions": "with wnk1_human WNK1, Q9H4A3"}
{"variant": "K49E;R56E;V178D", "effect of a mutation on the interaction": "decreasing interaction strength"}
{"variants_of": "B1", "conditions": "with abl1_human ABL1, P00519"}
{"variant": "K49E;R56E;V178D", "effect of a mutation on the interaction": "decreasing interaction strength"}
{"variants_of": "B1", "conditions": "with mast2_human MAST2, Q6P0Q8"}
{"variant": "K49E;R56E;V178D", "effect of a mutation on the interaction": "decreasing interaction strength"}
{"variants_of": "B1", "conditions": "with dyr1b_human DYRK1B"}
{"variant": "K49E;R56E;V178D", "effect of a mutation on the interaction": "decreasing interaction strength"}
{"variants_of": "B1", "conditions": "with wnk4_human WNK4, Q96J92"}
{"variant": "K49E;R56E;V178D", "effect of a mutation on the interaction": "decreasing interaction strength"}
{"variants_of": "B1", "conditions": "with clk3_human CLK3, P49761"}
{"variant": "K49E;R56E;V178D", "effect of a mutation on the interaction": "decreasing interaction strength"}
{"variants_of": "B1", "conditions": "with cdk18_human CDK18, Q07002"}
{"variant": "K49E;R56E;V178D", "effect of a mutation on the interaction": "decreasing interaction strength"}
{"variants_of": "B1", "conditions": "with lck_human LCK"}
{"variant": "K49E;R56E;V178D", "effect of a mutation on the interaction": "decreasing interaction strength"}
{"variants_of": "B1", "conditions": "with ntrk3_human NTRK3, Q16288"}
{"variant": "K49E;R56E;V178D", "effect of a mutation on the interaction": "decreasing interaction strength"}
{"variants_of": "B1", "conditions": "with mp2k7_human MAP2K7, O14733"}
{"variant": "K49E;R56E;V178D", "effect of a mutation on the interaction": "decreasing interaction strength"}
{"variants_of": "B1", "conditions": "with kkcc1_human CAMKK1, Q8N5S9"}
{"variant": "K49E;R56E;V178D", "effect of a mutation on the interaction": "decreasing interaction strength"}
{"variants_of": "B1", "conditions": "with tesk1_human TESK1, Q15569"}
{"variant": "K49E;R56E;V178D", "effect of a mutation on the interaction": "decreasing interaction strength"}
{"variants_of": "B1", "conditions": "with ilk_human ILK"}
{"variant": "K49E;R56E;V178D", "effect of a mutation on the interaction": "decreasing interaction strength"}
{"variants_of": "B1", "conditions": "with srpk3_human SRPK3, Q9UPE1"}
{"variant": "K49E;R56E;V178D", "effect of a mutation on the interaction": "decreasing interaction strength"}
{"variants_of": "B1", "conditions": "with btk_human BTK"}
{"variant": "K49E;R56E;V178D", "effect of a mutation on the interaction": "decreasing interaction strength"}
{"variants_of": "B1", "conditions": "with kpce_human PRKCE"}
{"variant": "K49E;R56E;V178D", "effect of a mutation on the interaction": "decreasing interaction strength"}
{"variants_of": "B1", "conditions": "with plk2_human PLK2, Q9NYY3"}
{"variant": "K49E;R56E;V178D", "effect of a mutation on the interaction": "decreasing interaction strength"}
{"variants_of": "B1", "conditions": "with st32c_human STK32C"}
{"variant": "K49E;R56E;V178D", "effect of a mutation on the interaction": "decreasing interaction strength"}
{"variants_of": "B1", "conditions": "with mylk2_human MYLK2, Q9H1R3"}
{"variant": "K49E;R56E;V178D", "effect of a mutation on the interaction": "decreasing interaction strength"}
{"variants_of": "B1", "conditions": "with ripk2_human RIPK2, O43353"}
{"variant": "K49E;R56E;V178D", "effect of a mutation on the interaction": "decreasing interaction strength"}
{"variants_of": "B1", "conditions": "with m4k4_human MAP4K4, O95819"}
{"variant": "K49E;R56E;V178D", "effect of a mutation on the interaction": "decreasing interaction strength"}
{"variants_of": "B1", "conditions": "with kc1d_human CSNK1D"}
{"variant": "K49E;R56E;V178D", "effect of a mutation on the interaction": "decreasing interaction strength"}
{"variants_of": "B1", "conditions": "with ks6a2_human RPS6KA2, Q15349"}
{"variant": "K49E;R56E;V178D", "effect of a mutation on the interaction": "decreasing interaction strength"}
{"variants_of": "B1", "conditions": "with alpk1_human ALPK1, Q96QP1"}
{"variant": "K49E;R56E;V178D", "effect of a mutation on the interaction": "decreasing interaction strength"}
{"variants_of": "B1", "conditions": "with kc1e_human CSNK1E"}
{"variant": "K49E;R56E;V178D", "effect of a mutation on the interaction": "decreasing interaction strength"}
{"variants_of": "B1", "conditions": "with kpcg_human PRKCG"}
{"variant": "K49E;R56E;V178D", "effect of a mutation on the interaction": "decreasing interaction strength"}
{"variants_of": "B1", "conditions": "with fak2_human PTK2B"}
{"variant": "K49E;R56E;V178D", "effect of a mutation on the interaction": "decreasing interaction strength"}
{"variants_of": "B1", "conditions": "with cdk3_human CDK3, Q00526"}
{"variant": "K49E;R56E;V178D", "effect of a mutation on the interaction": "decreasing interaction strength"}
{"variants_of": "B1", "conditions": "with limk1_human LIMK1, P53667"}
{"variant": "K49E;R56E;V178D", "effect of a mutation on the interaction": "decreasing interaction strength"}
{"variants_of": "B1", "conditions": "with pak6_human PAK6, Q9NQU5"}
{"variant": "K49E;R56E;V178D", "effect of a mutation on the interaction": "decreasing interaction strength"}
{"variants_of": "B1", "conditions": "with igf1r_human IGF1R"}
{"variant": "K49E;R56E;V178D", "effect of a mutation on the interaction": "decreasing interaction strength"}
{"variants_of": "B1", "conditions": "with aapk2_human PRKAA2, P54646"}
{"variant": "K49E;R56E;V178D", "effect of a mutation on the interaction": "decreasing interaction strength"}
{"variants_of": "B1", "conditions": "with pak4_human PAK4, O96013"}
{"variant": "K49E;R56E;V178D", "effect of a mutation on the interaction": "decreasing interaction strength"}
{"variants_of": "B1", "conditions": "with pgfra_human PDGFRA"}
{"variant": "K49E;R56E;V178D", "effect of a mutation on the interaction": "decreasing interaction strength"}
{"variants_of": "B1", "conditions": "with cdk17_human CDK17, Q00537"}
{"variant": "K49E;R56E;V178D", "effect of a mutation on the interaction": "decreasing interaction strength"}
{"variants_of": "B1", "conditions": "with mink1_human MINK1, Q8N4C8"}
{"variant": "K49E;R56E;V178D", "effect of a mutation on the interaction": "decreasing interaction strength"}
{"variants_of": "B1", "conditions": "with kcc2d_human CAMK2D"}
{"variant": "K49E;R56E;V178D", "effect of a mutation on the interaction": "decreasing interaction strength"}
{"variants_of": "B1", "conditions": "with kcc2a_human CAMK2A"}
{"variant": "K49E;R56E;V178D", "effect of a mutation on the interaction": "decreasing interaction strength"}
{"variants_of": "B1", "conditions": "with dapk2_human DAPK2, Q9UIK4"}
{"variant": "K49E;R56E;V178D", "effect of a mutation on the interaction": "decreasing interaction strength"}
{"variants_of": "B1", "conditions": "with m4k1_human MAP4K1, Q92918"}
{"variant": "K49E;R56E;V178D", "effect of a mutation on the interaction": "decreasing interaction strength"}
{"variants_of": "B1", "conditions": "with erbb4_human ERBB4, Q15303"}
{"variant": "K49E;R56E;V178D", "effect of a mutation on the interaction": "decreasing interaction strength"}
{"variants_of": "B1", "conditions": "with bub1b_human BUB1B"}
{"variant": "K49E;R56E;V178D", "effect of a mutation on the interaction": "decreasing interaction strength"}
